Results reported in paper PMC9605988, “Juxtaposition of Bub1 and Cdc20 on phosphorylated Mad1 during catalytic mitotic checkpoint complex assembly” (Nature Communications, 2022).
“Also recorded” adds a separate entry of the source. Like-named read-outs stand apart in the source and are kept apart here.

Assays:
[1] = system: pMad1CTD; assay: 1H,15N HSQC / CON NMR titration with pMad1CTD; assay type: binding, human; details: peptide titration, 298 K
Protocol: (§1) Uniformly-labelled proteins were expressed in M9 minimal media (6 g/L Na2HPO4, 3 g/L KH2PO4, 0.5 g/L NaCl) supplemented with 1.7 g/L yeast nitrogen base without NH4Cl and amino acids (Sigma Y1251). 1 g/L ^15NH4Cl and 4 g/L unlabelled glucose were supplemented for ^15N labelling. For ^13C/ ^15N double-labelled samples, unlabelled glucose was replaced with 3 g/L ^13C-glucose. Prior to all NMR experiments, proteins were dialysed into 20 mM HEPES, pH 7.0, 100 mM NaCl and 1 mM TCEP.
(§2) The following protein concentrations were used in NMR studies: ^1H,^15N HSQC of Mad1^CTD were collected with a 100 µM sample, whereas a 50 µM sample was used for titrations with Cdc20^N and Cdc20^α1. Cdc20^Box1 peptide was added at mM concentrations to minimise dilution during titration. […] Mad1^CTD was concentrated to 3 mM for titrations into Cdc20^N. ^1H,^15N HSQC of Mad2 were collected at 100 µM. All Mad2 NMR samples contain an R133A mutation to prevent Mad2 dimerisation. The C-Mad2 sample additionally contains an L13A mutation which favours the C-Mad2 state. Cdc20^MIM-bound C-Mad2 sample was prepared by adding a 1:2 excess of Cdc20^MIM peptide to an O-Mad2 sample with R133A mutation. To follow the O-to-C conversion of Mad2, the samples were prepared on ice and monitored using BEST ^1H,^15N-TROSY HSQC. The spectra were acquired with 16 scans and a recycle delay of 400 msec, giving an experimental time of 12 min per spectrum.
(§3) Mad1^CTD and Mad2 experiments were performed using an in-house 800 MHz Avance III spectrometer and Cdc20^N experiments were performed using an in-house 700 MHz Avance II + spectrometer, both equipped with triple resonance TCI CryoProbes. To retrieve signals that suffer from exchange broadening, we also utilised the Bruker 950 MHz Avance III spectrometer located at MRC Biomedical NMR Centre (Francis Crick Institute). Mad1^CTD and Mad2 spectra were collected at 298 K. Cdc20^N spectra were collected at 278 K to minimise exchange broadening for the largely disordered Cdc20^N.
(§4) For binding studies, the relative peak intensities were normalised to the C-terminal residue Ala718 of Mad1^CTD or Gly73 of Cdc20^N and expressed as PIbound/PIfree, with PIfree and PIbound being the peak heights of the free and bound forms, respectively. Weighted chemical shift perturbations were calculated using the equation[63]: Δδ = [(ΔδHNWHN)^2 + (ΔδNWN)^2)^2]^1/2 where ΔδHN and ΔδN are the chemical shift perturbations in ^1H and ^15N dimensions respectively. The weight factors were determined from the average variances of chemical shifts in the BMRB database, where WHN = 1 and WN = 0.16.

[2] = target: T1, Mad1CTD (unphosphorylated) (Homo sapiens, UniProt Q9Y6D9); assay: 1H,15N HSQC / CON NMR titration with unphosphorylated Mad1CTD; assay type: binding; details: peptide titration, 298 K
T1 construct: the C-terminal domain of Mad1 (residue 597–718); made in house
T1 sequence (Q9Y6D9 597-718): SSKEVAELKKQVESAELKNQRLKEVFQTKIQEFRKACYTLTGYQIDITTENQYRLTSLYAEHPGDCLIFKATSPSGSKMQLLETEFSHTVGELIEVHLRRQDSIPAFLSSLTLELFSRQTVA
Protocol: as §1
The following protein concentrations were used in NMR studies: ^1H,^15N HSQC of Mad1^CTD were collected with a 100 µM sample, whereas a 50 µM sample was used for titrations with Cdc20^N and Cdc20^α1. […] To follow the O-to-C conversion of Mad2, the samples were prepared on ice and monitored using BEST ^1H,^15N-TROSY HSQC. […]
as §4

[3] = target: T2, O-Mad2 R133A (Homo sapiens, UniProt Q13257, R133A); assay: NMR-monitored conversion of O-Mad2 to C-Mad2; assay type: biochemical; details: for O-Mad2 to C-Mad2 conversion: substoichiometric 2 µM Cdc20MIM (1:50) to 100 µM O-Mad2 R133A
T2 construct: made in house
T2 sequence (Q13257 whole entry R133A): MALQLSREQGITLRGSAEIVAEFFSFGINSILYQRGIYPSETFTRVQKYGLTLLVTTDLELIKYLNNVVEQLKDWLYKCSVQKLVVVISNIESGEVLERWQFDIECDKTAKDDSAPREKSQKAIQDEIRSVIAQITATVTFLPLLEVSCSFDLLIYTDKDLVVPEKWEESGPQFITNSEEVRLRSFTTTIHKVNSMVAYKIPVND
Protocol: as §2, §3

[4] = target: T3, preformed AF488-Bub1^CD1:Mad1^CTD complex (Mad1^CTD unphosphorylated) (UniProt Q9Y6D9 597-718, Aurora Fluor 488 (AF488) on the N-terminal Cys; phosphoserine (pSer459); phosphothreonine (pThr461)); assay: fluorescence polarisation; fluorescence anisotropy; Cdc20^N twofold series (100 μM to 6 nM, mixed 1:1) titrated into preformed AF488-Bub1^CD1:Mad1^CTD (20 nM: 2.1 µM); 25 mM HEPES pH 7.75, 1 mM TCEP, 100 mM NaCl, 0.05% Tween-20; 25 °C; details: both partners purified
T3 construct: Mad1 C-terminal domain (Mad1^CTD), residues 597-718; as m1; added N-terminal Cys (carries AF488) and Trp; as m7; Bub1 conserved domain 1 (CD1) peptide; also called Mad1^CTD:AF488-Bub1^CD1 complex; source: mixed from purified Mad1^CTD and synthetic peptide (20 nM: 2.1 µM); copies: 2 + 1
T3 sequence 1: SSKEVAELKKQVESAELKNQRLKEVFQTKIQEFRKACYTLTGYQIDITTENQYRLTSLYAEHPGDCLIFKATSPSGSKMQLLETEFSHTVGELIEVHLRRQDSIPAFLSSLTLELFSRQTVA
T3 sequence 2: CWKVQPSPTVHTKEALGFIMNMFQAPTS

[5] = target: T4, preformed AF488-Bub1^CD1:pMad1^CTD complex (Mad1^CTD phosphorylated at Thr716) (UniProt Q9Y6D9 597-718, phosphothreonine at 716 (pThr716) | Aurora Fluor 488 (AF488) on the N-terminal Cys; phosphoserine (pSer459); phosphothreonine (pThr461)); assay: as above; details: both partners purified
T4 construct: Mad1 C-terminal domain (Mad1^CTD), residues 597-718; as m2; added N-terminal Cys (carries AF488) and Trp; as m7; Bub1 conserved domain 1 (CD1) peptide; source: mixed from purified pMad1^CTD and synthetic peptide (20 nM: 2.1 µM); copies: 2 + 1
T4 sequence 1: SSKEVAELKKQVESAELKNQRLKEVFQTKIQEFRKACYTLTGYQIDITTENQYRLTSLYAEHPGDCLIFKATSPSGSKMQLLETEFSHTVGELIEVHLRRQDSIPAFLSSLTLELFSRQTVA
T4 sequence 2: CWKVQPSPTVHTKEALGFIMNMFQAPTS

[6] = system: pMad1CTD (Mad1CTD pT716); assay: SEC-MALS, Cdc20N with pMad1CTD; assay type: binding, human; details: 1:1.2 ratio Mad1CTD dimer to Cdc20N
Protocol: Size-exclusion chromatography coupled with multi-angle static light scattering (SEC-MALS), was performed using an Agilent 1200 series LC system with an online Dawn Helios ii system (Wyatt) equipped with a QELS + module (Wyatt) and an Optilab rEX differential refractive index detector (Wyatt). About 100 μl purified protein at ~3.0 mg/ml was auto-injected onto Superdex 75 or a Superdex 200 Increase 10/300 GL column (GE Healthcare) and run at 0.5 ml/min. The molecular masses were analysed with ASTRA 7.3.0.11 (Wyatt). Data were plotted using Prism 8.4.3 (GraphPad Software, Inc). Purified Cdc20^N and Cdc20^N mutants were incubated with Mad1^CTD wild-type or mutants at a 1:1.2 ratio of Mad1^CTD dimer to Cdc20^N.

[7] = target: the molecule itself; assay: SEC + SEC-MALS; Mad1:C-Mad2 tetramer re-purified by SEC after adding excess Mad2; hexamer formed with an excess of Mad2LL; homogeneity confirmed by SEC-MALS
[8] = system: Cdc20; details: cited from earlier work
Excerpt: NMR spectroscopy was used to obtain structural insights into the Cdc20^N:Mad1^CTD interaction. Unlabelled Cdc20^N was titrated into either ^15N-labelled Mad1^CTD or pMad1^CTD (Fig. 2c, d and Supplementary Fig. 3a, b). […] Similar to Bub1^CD1, the interaction of Cdc20 α1 with Mad1^CTD would largely be driven by hydrophobic interactions (Fig. 4e). This model predicts that Gln3 and Glu7, and Asp9 of Cdc20 α1 interact with Arg617 and Lys619, respectively of the Mad1^CTD RLK motif (Fig. 4d). This is consi ...

PPARWQRKAKEAA [Cdc20 Box1, Box1 motif peptide of Cdc20]
binding by NMR chemical shift perturbation [1]: binds pMad1^CTD
binding by NMR chemical shift perturbation ([1]; listed as pMad1CTD:Cdc20Box1): appeared stronger than that between pMad1CTD:Cdc20α1
binding by NMR chemical shift perturbation [2]: not Mad1^CTD

O-Mad2: open Mad2 with R133A mutation to prevent dimerisation
time for O-Mad2 to C-Mad2 conversion ([3]; absence of Cdc20MIM, peer review response): 24 h

MAQFAFESDLHSLL [Cdc20 α1, N-terminal α1 helix peptide of Cdc20]
binding by NMR chemical shift perturbation [1]: weak interaction; also recorded: weaker

NLNGFDVEEAKILRLSGKPQNAPEGYQNRLKVLY [Cdc20^MIM]
O-Mad2 to C-Mad2 conversion [3]: cannot be achieved
O-Mad2 to C-Mad2 conversion ([3]; listed as Cdc20MIM): The majority of Mad2 remains in an open state; also recorded: nearly all of Mad2 remains in an open state

B1: Cdc20^N RRK/SSS mutant (Arg27, Arg30, Lys31 to Ser) (domain or fragment, human, UniProt Q12834 1-73, looked up)
chain: MAQFAFESDLHSLLQLDAPIPNAPPASWQSSAKEAAGPAPSPMRAANRSHSAGRTPGRTPGKSSSKVQTTPSK
notes: human Cdc20, residues 1-73; The purification (with tag cleavage) is told for Cdc20^N; likely the same for the mutant; source: site-directed mutant of the Cdc20^N construct, purified
Kd [4]: 18 µM
Kd [5]: 23 µM

B2: Cdc20^N RRK/SSS: Cdc20N with Arg27, Arg30, Lys31 mutated to Ser (protein)
chain: MAQFAFESDLHSLLQLDAPIPNAPPASWQSSAKEAAGPAPSPMRAANRSHSAGRTPGRTPGKSSSKVQTTPSK
modifications: left off: His6, N-terminal, state not stated | MBP, N-terminal, state not stated
notes: Cdc20N with Arg27, Arg30, Lys31 mutated to Ser
binding by SEC-MALS [6]: abolished its interaction with pMad1^CTD

B3: Mad1^485–718 (Mad1^485), unphosphorylated (domain or fragment, UniProt Q9Y6D9 485-718, looked up)
chain: SSAEQSFLFSREEADTLRLKVEELEGERSRLEEEKRMLEAQLERRALQGDYDQSRTKVLHMSLNPTSVARQRLREDHSQLQAECERLRGLLRAMERGGTVPADLEAAAASLPSSKEVAELKKQVESAELKNQRLKEVFQTKIQEFRKACYTLTGYQIDITTENQYRLTSLYAEHPGDCLIFKATSPSGSKMQLLETEFSHTVGELIEVHLRRQDSIPAFLSSLTLELFSRQTVA
notes: Mad1 residues 485-718; Construct His6-DoubleStrep-TEV-Mad1^485–718; two copies in the tetramer and hexamer with Mad2; also called Mad1 residues 485–718
binding result [7]: binds

B4: Mad1^485–718 phosphorylated by Mps1 (pMad1^485) (domain or fragment, UniProt Q9Y6D9 485-718, looked up)
chain: SSAEQSFLFSREEADTLRLKVEELEGERSRLEEEKRMLEAQLERRALQGDYDQSRTKVLHMSLNPTSVARQRLREDHSQLQAECERLRGLLRAMERGGTVPADLEAAAASLPSSKEVAELKKQVESAELKNQRLKEVFQTKIQEFRKACYTLTGYQIDITTENQYRLTSLYAEHPGDCLIFKATSPSGSKMQLLETEFSHTVGELIEVHLRRQDSIPAFLSSLTLELFSRQTVA
modifications: phosphothreonine at 716 (predominant); lower abundant phosphorylation at Thr500, Ser538, Thr540, Thr550 and Ser551
notes: Mad1 residues 485-718; Predominantly one phosphate per monomer by intact mass; also called phosphorylated Mad1^485; phosphorylated Mad1^485–718
binding result [7]: binds

B5: Q648A/R650A: mutation of the conserved QYRL motif within Mad1CTD, ref 33 (protein, UniProt Q9Y6D9 597-718, looked up, variant Q648A R650A)
chain: SSKEVAELKKQVESAELKNQRLKEVFQTKIQEFRKACYTLTGYQIDITTENAYALTSLYAEHPGDCLIFKATSPSGSKMQLLETEFSHTVGELIEVHLRRQDSIPAFLSSLTLELFSRQTVA
binding of Cdc20 to Mad1 mutant [8]: impaired binding to Cdc20
binding of Cdc20 to Mad1 mutant ([8]; listed as Q648A and R650A): impaired binding of Cdc20^N to Mad1

B6: Mad1^CTD RLK/AAA: Mad1CTD RLK/AAA (residues 617-619) mutant, ref 33 (protein, UniProt Q9Y6D9 597-718, looked up, variant R617A L618A K619A)
chain: SSKEVAELKKQVESAELKNQAAAEVFQTKIQEFRKACYTLTGYQIDITTENQYRLTSLYAEHPGDCLIFKATSPSGSKMQLLETEFSHTVGELIEVHLRRQDSIPAFLSSLTLELFSRQTVA
binding of Cdc20 to Mad1 mutant [8]: abolished Cdc20 binding
binding of Cdc20 to Mad1 mutant ([8]; listed as RLK/AAA): impaired binding of Cdc20^N to Mad1
